In IntAct's records for PubMed 7758105:

B1: Tumor necrosis factor receptor superfamily member 1A (Homo sapiens), P19438 (parent)
chain: MGLSTVPDLLLPLVLLELLVGIYPSGVIGLVPHLGDREKRDSVCPQGKYIHPQNNSICCTKCHKGTYLYNDCPGPGQDTDCRECESGSFTASENHLRHCLSCSKCRKEMGQVEISSCTVDRDTVCGCRKNQYRHYWSENLFQCFNCSLCLNGTVHLSCQEKQNTVCTCHAGFFLRENECVSCSNCKKSLECTKLCLPQIENVKGTEDSGTTVLLPLVIFFGLCLLSLLFIGLMYRYQRWKSKLYSIVCGKSTPEKEGELEGTTTKPLAPNPSFSPTPGFTPTLGFSPVPSSTFTSSSTYTPGDCPNFAAPRREVAPPYQGADPILATALASDPIPNPLQKWEDSAHKPQSLDTDDPATLYAVVENVPPLRWKEFVRRLGLSDHEIDRLELQNGRCLREAQYSMLATWRRRTPRREATLELLGRVLRDMDLLGCLEDIEEALCGPAALPPAPSLLR
partner: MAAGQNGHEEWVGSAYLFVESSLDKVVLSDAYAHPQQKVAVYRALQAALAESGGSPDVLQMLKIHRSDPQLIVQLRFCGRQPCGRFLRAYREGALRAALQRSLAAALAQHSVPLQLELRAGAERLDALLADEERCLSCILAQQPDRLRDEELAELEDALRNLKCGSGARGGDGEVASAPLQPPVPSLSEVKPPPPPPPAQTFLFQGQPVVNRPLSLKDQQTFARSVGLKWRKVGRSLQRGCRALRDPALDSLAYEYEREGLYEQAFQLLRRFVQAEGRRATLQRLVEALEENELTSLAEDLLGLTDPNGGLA

Variants of: B1
Details: with tradd_human TRADD
In the case of MGLSTVPDLLLPLVLLELLVGIYPSGVIGLVPHLGDREKRDSVCPQGKYIHPQNNSICCTKCHKGTYLYNDCPGPGQDTDCRECESGSFTASENHLRHCLSCSKCRKEMGQVEISSCTVDRDTVCGCRKNQYRHYWSENLFQCFNCSLCLNGTVHLSCQEKQNTVCTCHAGFFLRENECVSCSNCKKSLECTKLCLPQIENVKGTEDSGTTVLLPLVIFFGLCLLSLLFIGLMYRYQRWKSKLYSIVCGKSTPEKEGELEGTTTKPLAPNPSFSPTPGFTPTLGFSPVPSSTFTSSSTYTPGDCPNFAAPRREVAPPYQGADPILATALASDPIPNPLQKWEDSAHKPQSLDTDDPATLYAVVENVPPLRWAEAVARLGLSDHEIDRLELQNGRCLREAQYSMLATWRRRTPRREATLELLGRVLRDMDLLGCLEDIEEALCGPAALPPAPSLLR [K372A;F374A;R376A], the “effect of a mutation on the interaction” value is reported as “decreasing interaction”.
